The nanobody polyreactivity screen of Harvey et al. (2022)

Assay: yeast display, Sf9 membrane polyspecificity reagent, FACS + sequencing; frameworks hold sequencing errors
Method in brief: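 Galactose induction of a Saccharomyces cerevisiae BJ5465 synthetic nanobody display library ran 36–48 hours. The cells were then stained for 1 hour at 4 °C with 10% biotinylated, detergent-solubilized Sf9 membrane reagent, pulled down on streptavidin microbeads and FACS-sorted into low and high (top ~1%) gates on expression and reagent-binding fluorescence. Labels for polyreactivity follow the gate of origin.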
In the case of “QVQLVESGGGLVQAGGSLRLSCAASGNTFRHNTMGWYRQAPGKERELVSTNYADSVKGRFTISRDNAKNTVYLQMNSLKPEDTAVYYCNADGTFGYEYWGHGTQVTVSS”, the “polyreactivity (PSR sort gate)” value is reported as “low polyreactivity”.
For “QVQLVESGGGLVQAGGSLRLSCAASGSIFWYNAMGWYRQAAGKERELVAAIRWRGGSTYYADSVKGRFTISRDNEKNTVYLQMNSLKPEDTAVYYFAAQVYVSQLYTSYYYWGQGTQVTVSS”, the “polyreactivity (PSR sort gate)” value was “high polyreactivity”.
With “QVQLQESVGGLVQAGGTLRMSCAASGSFSADEDMGWYRQAQGKEREFVAGISVGGNTNYADSVKGRFTISRENAKNTVYLQINSLKPEETAVYYCAADYKPTSRSNTYYYWGQGTQVTVSS” the “polyreactivity (PSR sort gate)” value was “high polyreactivity”.
In the case of “QVQLVESGGGLVQAGGSLRLSCAASGRTFGLNAMGWYRQAPGKEMELVAAITSGGSTYYADSVKGRFTISRDNAKNTVYLQMNSLKPEDTAVYYCAVTYNGDSSWPGDYWGQGTQVTVSS”, the “polyreactivity (PSR sort gate)” value is reported as “low polyreactivity”.
In the case of “QVQLVESGGGLVQAGGSLRLSCAASGSTFVRYAMGWYRQAPGKERELVAGISSGDRTYYADSVKGRFTISRDNAKNTVYLQMNSLKPEDTAVYYCNARPVYLLEGYYWGQGTQVTVSS”, the “polyreactivity (PSR sort gate)” value is reported as “low polyreactivity”.
With “QVQLVESGGGLVQAGGSLRLSCAASGITFYRYAMGWYRQAPGKERELVAAITGSGDSTYYADSVKGRFTISRDNAKNTVYLQMNSLKPEDTAVYYCNTDYGRRYDYWGQGTQVTVSS” the “polyreactivity (PSR sort gate)” value was “high polyreactivity”.
For “QVQLVESGGGLVQAGGSLRLSCAASGSTFNLNAMGWYRQAPGKERELVAAIDSGGRTNYADSVKGRFTISRDNAKNTVYLQMNSLKPEDTAVYYCAARVLPYLTPRRQMYYWGQGTQVTVSS”, the “polyreactivity (PSR sort gate)” value was “low polyreactivity”.
In the case of “QVQLVESGGGLVQAGGSLRLSCAASGRIFRNYAMGWYRQAPGKERELVAAISYTTGSTYYADSVKGRFTISRDNAKNTVYLQMNSLKPEDTAVYYCATTDWYFKFYYWGQGTQVTVSS”, the “polyreactivity (PSR sort gate)” value is reported as “high polyreactivity”.
With “QVQLVESGGGLVQAGGRLRLSCAASGRTIPYYAMGWSRQSPGKDREFVAAISGGGGSTHYADSVKGRFTISRDNAKNTVYLQMNSLKPEDTAVYYCNADKYSVYGEHPYDYWGQGSQVTVSS” the “polyreactivity (PSR sort gate)” value was “low polyreactivity”.
With “QVQLVESGGGLVQAGGRLRLSCAASGSTFDYYTMGGYRQAPGKERELVAGITSGGSTNYADSVKGRFTISRDNAKNTVYLQMNSLKPADTAVYYCAARVSKYYKPYGYWGQGTQVTVSS” the “polyreactivity (PSR sort gate)” value was “high polyreactivity”.
For “QVQLVESGGGLVQAGGSLRLSCAASGFIFRRNAMGWSRQAPRKERELVAAISSRGGTTYYADSVKGRFTISRDNAKNTVYLQMNSLKPEDTAVYYCNAVKFGATAYDYWGQGTQVTVSS”, the “polyreactivity (PSR sort gate)” value was “high polyreactivity”.
With “QVQLVESGGGLVQAGGSLRLTCAASGFIFHRYAMGWYRQAPGKERELVAAITLNGGSTYYADSVKGRFTISRDNAKNTVYLQLNSLKPEDTAVYYCNAGWPWYVGGYYYWGQGTQVTVSS” the “polyreactivity (PSR sort gate)” value was “low polyreactivity”.
For “QVQLVESGGGLVQAGGSLSLSCADSGRNFAPYAMGWYRQAPGKERELVAAITSGGSTNYADSVKGRFTISRDNAKNTVYLQMNSLKPEDTAVYYCAARQPGTRYPYDYWGQGTQVTVSS”, the “polyreactivity (PSR sort gate)” value was “high polyreactivity”.
With “QVHLVESGGGLVQAGGSLRLSCAASGRTFGPYTMGWYRQAPGTEREVVAAINSSGSRTYYADSVKGRFTISRDNAKNTVYLQMNSLKPEDTAVYYCADEAKWYYSWSYPYEGDYWGQGTQVTVSS” the “polyreactivity (PSR sort gate)” value was “low polyreactivity”.
With “QVQLVESGGGLVQAGGSLRLSCAASGSTFTYYAMGWYRQAPGKERELVAAISRGGRTNYADSVKGRFTISRDNAKNTVYLQMNSLKPEDTAVYFCAAVVFRTGIWFDYWGQGTQVTVSS” the “polyreactivity (PSR sort gate)” value was “high polyreactivity”.
With “KVQLGVSGGGLVQAGGSLRLSCASSGFIFRYYAMGWSRQAPGKERELVAGISSGGSTYYADSVKGRFTISRDNAKNTVYLKMNSLKPEDTAVYYCNAVYSSGVDGSEGFDYWGQGTQVTVSS” the “polyreactivity (PSR sort gate)” value was “low polyreactivity”.
With “QVQLVESGVGLVQAGGSLRLSCAASGRIFHINAMGWYRQAPGKERELVATISGTDRTTYADSVKGRFTISRDNAKNTVYLQMNSLKPEDTAVYYCAAPTDFLFWEFDYWGQGTQVTVSS” the “polyreactivity (PSR sort gate)” value was “low polyreactivity”.
In the case of “QVQLVESGGGLVQAGGSLRLSCAASGSIFYPYAMGWYRQAPGKERELVAAIRRSGTTYYADSVKGRFTISRDNAKNTVYLQMNSLKPEDTAVYYCNKVRGQEPSNYDYWGQGTQVTVSS”, the “polyreactivity (PSR sort gate)” value is reported as “low polyreactivity”.
With “QVQLVESGGGLVQAGGSLRLSCAASGSTFYLYAMGWYRQAPGKERELVAAISSGGRTNYADSVKGRFTISLDNAKNTVYLQINSLKPEDTAVYYCAARIQWPTWSLYYYWGQGSQVTVSS” the “polyreactivity (PSR sort gate)” value was “high polyreactivity”.
In the case of “QVQLVESGGGLVQAGGSLSLICAAYGSTLGVYAMGWYIQAPGKERELVAAISSGGSTTYADSVKGRFTISRDNAKNTVYLQMNSLKPEDTAVYYCAADRYEGYVTWYWWGAYNYDYWGQGTQVTVSS”, the “polyreactivity (PSR sort gate)” value is reported as “high polyreactivity”.
For “QVQLVESGVGLVQAGGSLRLSCAASGIIFYEYAMGWNRQAPWKERELVATITSGGSTNYADSVKGRFTISRDNAKNTVYLQMNSLKPEDTAVYYCNADWWWGYGYWGQGTQVTVSS”, the “polyreactivity (PSR sort gate)” value was “low polyreactivity”.
For “QVQLVESGGGLVQAGGSLRLSCAASGFTIDDNAMGWSRQPPGKERELVAAISWSGGSTYYADSVKGRFTISRDNAKNTVYLQMNSLKPEDTAVYYCAIDVSQPKFDYWGQGTQVTVSS”, the “polyreactivity (PSR sort gate)” value was “low polyreactivity”.
With “QVQLVESGGGLVQAGGSLRLSCAASGSIFTYNAMGWYRQAPGKERELVAAISTSGGSTYYADSVKGRFTISRDNAKNTVYLQMNSLKPEDTAVYYCAAEYYVYPFWYGYWGQGTQVTVSS” the “polyreactivity (PSR sort gate)” value was “high polyreactivity”.
In the case of “QVQLVESWGGLVQAGGSLRLSCAASGSTFVINAMGWYSQAPGKERELVAAITWGGGRTYYADSVKGRFTISRDNAKNTVYLQMNSLKPEDTAVYYCAAVGSGWKGDYWGQGTQVTVSS”, the “polyreactivity (PSR sort gate)” value is reported as “low polyreactivity”.
For “QVQLVESGAGLVQAGGSLRLSWAASGRIFTGNGMGWYRQAPGKEMELVAGIRNGGGRTYYADSVKGRFTISRDNAKNTVYLKMNSLKPEDTAVYYCAVRIYVRNSPGERLDKYDYWGQGTQVTVSS”, the “polyreactivity (PSR sort gate)” value was “high polyreactivity”.
In the case of “QVQLVESAVGLVQAGGSLRLSCDASGRSYYTYAMGWYRQAPGKERELVATITDGGSTYYAESVKGRFTISRDNAKNTVYLQMNSLKPEDTAVYYCAADAYQWYDWGQGTQVTVSS”, the “polyreactivity (PSR sort gate)” value is reported as “low polyreactivity”.
With “QVQLVESGGGLVQAGGSLRLSCAASGNTFYGYVMGWYRQAPGKERELVAAISWSGGRTYYADSVKGRFTISRDNAKNTVYLQMNSLKPEDTAVYYCAAVLLYYIYDYWGQGTQVTVSS” the “polyreactivity (PSR sort gate)” value was “low polyreactivity”.
In the case of “QVQLVESGGGLVQAGGSLRLSCAASGGTFIANAMGWYRQAPGKERELVATINANADTTYYADSVKGRFTISRDNAKNTVYLQMNSLKPEDTAVYYCAAAQRYPIKYYYWGQGTQVTVSS”, the “polyreactivity (PSR sort gate)” value is reported as “low polyreactivity”.
With “QVQLVESGGGLVQAGGSLRLSCAASGGIFHVYGMGWYRQAPGKERELVAAISYSGASTSYADSVKGRFTISRDNAKNTVYLQMNSLKPEDTAVYYCAAKVYYRRYRSGYDYWGQGTQVTVSS” the “polyreactivity (PSR sort gate)” value was “high polyreactivity”.
With “QVQLQEGGGLVQAGGSLRLSCAASGYISSRPAMGWYRQAPRKERAFVATIADGTSTYYADSVKGRFTISRDNAKNTVYLQMNSLKPEDTAVYYCAAAYNTEFYLSYWGQGTQVTVSS” the “polyreactivity (PSR sort gate)” value was “high polyreactivity”.
With “QVQLVESGGGLVQAGGSLRLSWAASGITFDDYAMGWYRPAPGKERELVAAITWSGDSTYYADSVKGRFTISRDNAKNTVYLQMNSLKPEDTAVYYCAAVSYYWGQGTQVTVSS” the “polyreactivity (PSR sort gate)” value was “high polyreactivity”.
In the case of “QVQLVESGGGLVQAGGSLRLSCAASGRTFYGNAMGWYRQAPGKERELVAAITSGGGSTRYADSVKGRFTISRDNANNTVYLQMNSLKPEHTAVYYCAAYRQGTAYDYWGQGTQVTVSS”, the “polyreactivity (PSR sort gate)” value is reported as “high polyreactivity”.
In the case of “QVQLVESGGGLVQAGGSLRLSCAASGSIFPGYARGWYRQAPGKERELVATITWSGGSTYYADSVKGRFTISRDNAKNTVYLQMNILIPEDTAVYYCNADSNWYYQWNYYGLYDYWGQGNQVTVSS”, the “polyreactivity (PSR sort gate)” value is reported as “low polyreactivity”.
With “QVQLVESGGGLVQAGGSLRLSCAASGSTFGLYAMGWYRQAPGKEREFVAAITASGGRTYYADSVKGRFTISRDHAKNTVYLQMNSLKPEDTAVYYCNSRTSHYDKYGYWGQGTQVTVSS” the “polyreactivity (PSR sort gate)” value was “high polyreactivity”.
For “QVHLQESGGLVQAGGLRLSCAASGSVSYHEAMGWYRQAPAKERELVATISFGANTNYADSVKGRFTISRDNAKHTVYLHMNSLKPEDTAVYYCAAESLFDDYYGYWGQGTQVTVSS”, the “polyreactivity (PSR sort gate)” value was “low polyreactivity”.
With “QVQLVESGGGLVQAGGSLRLSCAASGSTFGWYAMGWYRQAPGKEREFVAAISWSGTSTYYADSVKGRFTISRDNAKNTVYLQMNSLKPEDTAVYYCNARSKRANRSLGLGYWGQGTQVTVSS” the “polyreactivity (PSR sort gate)” value was “low polyreactivity”.
In the case of “QVQLVESGGGLVQAGGSLRLSCAASGRIFRSYVMGWYRQAPGKERELVAVISKNGGTTYYADSVKGRFTISRDNAKNTVYLQMNSLKPEDTAVYYCAADFRYRSQPGWGARRNGYYWGQGTQVTVSS”, the “polyreactivity (PSR sort gate)” value is reported as “high polyreactivity”.
With “QVQLVESGGGLVQAGGSLRLSCAASGRIFDIYAMGWYRQAPGKERELVAGITWRAGSTYYADSVKGRFTISRDNAKNTVYLQMNSLKPEDTAVYYCAAEVWVTDPYWGDFYYWGHGTQVTVSS” the “polyreactivity (PSR sort gate)” value was “low polyreactivity”.
In the case of “QVQLVESGGGLLHAGGSLRLSCAASGSTFILYTMGWYRQAPGKERELVAAISRSSGGTYYADSVKGRFTISRDTAKNTVYLQMNSLKTEDTAVYYCAARSRGAKYDYWGQGTQVTVSS”, the “polyreactivity (PSR sort gate)” value is reported as “high polyreactivity”.
With “QVQLVESGGGLVQAGGSLRLSCAASGYIFAVYAMGWYIQAPGKEREFVAVITWRGGSTYYADSVKGRFTISRDNAKNTVYLQMNSLKPEDTAVYYCADDVYAQYDYWGQGTQVTVSS” the “polyreactivity (PSR sort gate)” value was “high polyreactivity”.
With “QVQLVESGGGLVQAGGSLRLSCAASGFTFVPYAMGWYRQAPGKERETNADSVKGRFTISRDNAKNTVYLQMNSLKPEDTAVYYCAAGGYGPYDYWGQGTQVTVSS” the “polyreactivity (PSR sort gate)” value was “low polyreactivity”.
